The target of one data set is T1, BRM AT (AT-hook alone) (Homo sapiens, UniProt P51531 1358-1377).
T1 chain: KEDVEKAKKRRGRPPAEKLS
In words: NMR.

In another data set the target is ATGGGP-L-BD (Homo sapiens, UniProt P51531-2 1358-1490, R1368G;R1370G). In words: NMR.
Another data set deals with ATDGDP-L-BD (Homo sapiens, UniProt P51531-2 1358-1490, R1368D;R1370D). In words: NMR.
For data set [1], the target named is T2, BRM AT-L-BD WT (BRM-B) (Homo sapiens, UniProt P51531-2 1358-1490). In words: NMR.
Data set [2] has as its target T2, BRM AT-L-BD WT (BRM-B). In words: fluorescence anisotropy.
In the next data set the target is AT-LANAA-BD (Homo sapiens, UniProt P51531-2 1358-1490, P1378A;P1380A;P1381A). The data set is described as follows: fluorescence anisotropy. A general note: In fluorescence polarisation assays a small probe gives low polarisation when free and higher when bound to something large.

B1: 10 bp NMR dsDNA (dsDNA)
DNA 1: CTCAATTGGT
DNA 2: ACCAATTGAG
The term Kd denotes the free concentration of one partner at which half of the binding sites on the other are occupied at equilibrium, for simple one-to-one binding. A higher Kd goes with weaker binding. For B1, the Kd in the data set with BRM AT (AT-hook alone) was 220 ± 30 µM; in the data set with ATGGGP-L-BD, 130 ± 30 µM; in the data set with ATDGDP-L-BD it was 410 ± 70 µM; with BRM AT-L-BD WT (BRM-B) [1], roughly 3 µM.

B2: DNA.FA 12 bp dsDNA (dsDNA)
DNA 1: CCTCAATTGGTC
DNA 2: GACCAATTGAGG
Take B2: the Kd amounted to 8 ± 1 µM with BRM AT-L-BD WT (BRM-B) [2] and 4 ± 1 µM in the data set with AT-LANAA-BD.

The values are drawn from paper PMC8184587.
